This note sets out measurements from US20040038369A1, “Airway-specific trypsin-like enzymes and method of using the same” (priority 2000, published 2004).

The target in experiment [1] is EGF antigen on the surface of the NCI-H292 cell membrane (proEGF) (human) (UniProt P01133). Nature of the experiment: flow cytometry on NCI-H292 cells, control IgG1 1 µg, FITC secondary. Background: A flow cytometer gives signals particle by particle.
The target is the same in experiment [2]. The experiment is described as follows: flow cytometry on NCI-H292 cells, control IgG1 1 µg, PerCP secondary.

Chain of EGF antigen on the surface of the NCI-H292 cell membrane (proEGF) (human) (P01133 23-1207): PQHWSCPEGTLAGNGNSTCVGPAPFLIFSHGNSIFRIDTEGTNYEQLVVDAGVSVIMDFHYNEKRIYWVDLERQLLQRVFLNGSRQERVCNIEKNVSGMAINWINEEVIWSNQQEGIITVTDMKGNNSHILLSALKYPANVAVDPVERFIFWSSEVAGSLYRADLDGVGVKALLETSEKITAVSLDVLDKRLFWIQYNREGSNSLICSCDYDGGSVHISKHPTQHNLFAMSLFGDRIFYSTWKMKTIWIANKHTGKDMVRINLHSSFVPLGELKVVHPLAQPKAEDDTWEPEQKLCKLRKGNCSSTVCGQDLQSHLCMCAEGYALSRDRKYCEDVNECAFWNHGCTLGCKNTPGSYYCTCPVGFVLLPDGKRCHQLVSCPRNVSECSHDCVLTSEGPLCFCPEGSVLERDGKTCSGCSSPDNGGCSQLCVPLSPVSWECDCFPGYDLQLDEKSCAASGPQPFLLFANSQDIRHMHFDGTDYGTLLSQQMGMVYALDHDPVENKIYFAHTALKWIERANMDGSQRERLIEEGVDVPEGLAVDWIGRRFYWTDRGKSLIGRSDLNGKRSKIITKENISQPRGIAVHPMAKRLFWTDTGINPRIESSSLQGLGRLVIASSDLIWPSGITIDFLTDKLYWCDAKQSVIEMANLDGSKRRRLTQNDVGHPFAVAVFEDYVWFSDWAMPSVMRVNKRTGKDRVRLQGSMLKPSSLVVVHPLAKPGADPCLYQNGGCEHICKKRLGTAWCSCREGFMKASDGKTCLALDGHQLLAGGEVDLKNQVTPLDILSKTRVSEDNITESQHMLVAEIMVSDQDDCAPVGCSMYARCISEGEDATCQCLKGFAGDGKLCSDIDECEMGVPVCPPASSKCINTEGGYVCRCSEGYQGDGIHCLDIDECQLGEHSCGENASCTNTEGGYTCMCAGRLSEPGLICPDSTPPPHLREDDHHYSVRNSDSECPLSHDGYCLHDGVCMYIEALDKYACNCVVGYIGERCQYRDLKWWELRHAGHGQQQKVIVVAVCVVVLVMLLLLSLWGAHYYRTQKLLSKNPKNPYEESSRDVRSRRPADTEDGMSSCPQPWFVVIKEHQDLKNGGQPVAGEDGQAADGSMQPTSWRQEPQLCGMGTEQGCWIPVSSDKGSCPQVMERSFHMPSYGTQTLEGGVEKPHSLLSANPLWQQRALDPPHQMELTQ

Turning to “normal mouse IgG1 (produced by R & D Corp.) (antibody)”, the average fluorescence intensity (back ground) in experiment [1] was determined as 4.62; in experiment [2], 8.44.
